# Experimental data taken from US11110171B2, “PD-1 related cancer therapy” (New York University, priority 2017, dated 2021).
# Biological target: T1, SHP2PTP (GST tagged SHP2 catalytic domain) (Homo sapiens, UniProt Q06124)
# T1 construct: a fixed amount of purified GST-WT SHP2 catalytic domain (0.2 ug) was incubated with variable concentrations; purchased Abcam 42578
# T1 sequence (Q06124 247-517 limits assumed): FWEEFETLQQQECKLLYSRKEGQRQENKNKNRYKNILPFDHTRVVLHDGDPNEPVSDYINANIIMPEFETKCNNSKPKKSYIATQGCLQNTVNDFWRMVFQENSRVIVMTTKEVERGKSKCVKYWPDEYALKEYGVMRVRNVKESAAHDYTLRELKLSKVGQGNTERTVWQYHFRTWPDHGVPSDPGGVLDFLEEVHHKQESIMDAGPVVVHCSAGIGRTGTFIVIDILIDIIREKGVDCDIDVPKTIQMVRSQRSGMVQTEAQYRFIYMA
# Test: Malachite Green phosphatase assay of SHP2 catalytic domain with phosphotyrosyl peptide substrates
# Format: biochemical
# Details: for increase of Km of SHP2-mediated dephosphorylation in the presence of SAP: SAP 1 uM or 10 uM
# Experimental: FIG. 4. SAP inhibits SHP2 activity. […] At this time, the cells were harvested, and analyzed by immunoblotting, as indicated. (b) Jurkat T cells, transfected with siRNA for SAP (SAP KD) and non-targeting control (Control), were treated with pervanadate to induce maximal phosphorylation, followed by five serial washes, lysis and diafiltration to remove the drug and to exchange the buffer to a phosphatase-compatible buffer. SHP2^PTP (GST tagged SHP2 catalytic domain) was then added to the cell lysates for one hour, at the indicated concentrations, followed by immunoblotting with anti-phosphotyrosine antibody (4G10). (c) Densitometry values of all the phophotyrosine containing proteins shown at b. All values are relative to the baseline condition (without SHP2^PTP). […] (e-g) Enzymatic activity of SHP2^PTP was measured using a Malachite Green assay, with p60-SRC (e), SLAMF5 Y279 (f), CD3 Y142 (g), CD28 Y172 (h), and CD28 Y190 (i) peptides as substrates. Substrate titrations of SHP2P (dark circles) at baseline (control), or in the presence of SAP 1 uM (white circles) or SAP 10 uM (crossed circles) are shown. Curves are fitted using the Michelis-Menten equation and derived Km values are shown. The data points represent the mean of three measurements. (j) A diagram describing the shielding model. Data are represented as mean±SEM. * or ** represent significant differences between the denoted group and the anti-CD3 treated cells in a, or between SAP deficient cells and control cells in e; * <0.05, ** P<0.01, n=4, unpaired t test.
# First, SAP could bind SHP2 and directly block the SHP2 catalytic site, or alternatively, SAP might not bind to SHP2, but rather could bind to its substrates and thereby block the interaction between SHP2 and its enzymatic substrates. […] To test the effect of SAP on SHP2 mediated dephosphorylation events, we measured SHP2-mediated dephosphorylation of p60-SRC Y416 (FIG. 4e), SLAMF5 Y279 (FIG. 4f), and CD3 Y142 (FIG. 4g) phosphotyrosyl peptides by Malachite Green assays. […]
# To determine kinetic parameters, a fixed amount of purified GST-WT SHP2 catalytic domain was incubated with variable concentrations of substrates in (GenScript) in PTP assay buffer (Phosphatase assay kit; Upstate 17-313). […] release was quantified by adding Malachite Green (Malachite Green phosphatase detection kit; R&D DY996).
# 293T cells were transfected with pMSCV-SHP2, pMSCV empty vector, PD1-WT-GFP, PD1-Y223F-GFP or PD1-Y248F-GFP for 48 hours, followed by pervanadate treatment and immunoprecipitation using anti-GFP mAb-Agarose. The anti-GFP mAb-Agarose beads that were used for immunoprecipitation were then used for a pull-down of the SHP2/null transfected cells, and phosphatase activity on the beads was assessed using pNPP (Sigma). […]
molecule,measurement,setting,value
"SAP: Recombinant human SAP (His tagged), signaling lymphocytic activation molecule-associated protein, purchased from Abcam (protein, UniProt O60880 1-128, looked up, His tag) SH2 domain-containing protein …: MDAVAVYHGKISRETGEKLLLATGLDGSYLLRDSESVPGVYCLCVLYHGYIYTYRVSQTETGSWSAETAPGVHKRYFRKIKNLISAFQKPDQGIVIPLQYPVEKKSSARSTQGTTGIREDPDVCLKAP",Vmax of SHP2-mediated dephosphorylation in the presence of SAP,"all three phosphotyrosyl peptides (p60-SRC, SLAMF5, CD3)",unaffected
same,increase of Km of SHP2-mediated dephosphorylation in the presence of SAP,substrate phosphorylated CD3 Y142 peptide,2-3 fold
same,increase of Km of SHP2-mediated dephosphorylation in the presence of SAP,substrate phosphorylated SLAMF5 Y279 peptide,2-3 fold
same,inhibition of SHP2-mediated dephosphorylation of the tail of CD28,substrates CD28 Y173 and CD28 Y190 peptides,predominantly inhibited dephosphorylation of CD28 Y173 over CD28 Y190
